Experiment: cycloheximide chase, endogenous CK2α, HEK293T
Details: glycan lost; control: untreated

B1: Casein kinase 2 alpha (CK2α): OSMI-4b (protein)
parent chain: MSGPVPSRARVYTDVNTHRPREYWDYESHVVEWGNQDDYQLVRKLGRGKYSEVFEAINITNNEKVVVKILKPVKKKKIKREIKILENLRGGPNIITLADIVKDPVSRTPALVFEHVNNTDFKQLYQTLTDYDIRFYMYEILKALDYCHSMGIMHRDVKPHNVMIDHEHRKLRLIDWGLAEFYHPGQEYNVRVASRYFKGPELLVDYQMYDYSLDMWSLGCMLASMIFRKEPFFHGHDNYDQLVRIAKVLGTEDLYDYIDKYNIELDPRFNDILGRHSRKRWERFVHSENQHLVSPEALDFLDKLLRYDHQSRLTAREAMEHPYFYTVVKDQARMGSSSMPGGSTPVSSANMMSGISSVPTPSPLGPLAGSPVIAAANPLGMPVPAAAGAQQ
- degradation_or_half_life: no change
